This note sets out measurements from the domain aggregation screens of Martell et al. (2025).

This data set can be described thus: soluble fraction after stress (log2 fold change); higher = more stays soluble; pooled small domains, quantitative proteomics. The following applies: stress: pH 4. The method in brief: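 Following acid stress at pH 4, the amount of each small protein domain still soluble was measured in pooled custom libraries by high-throughput quantitative proteomics. Its fold change, on a log2 scale, is higher when more of the domain stayed soluble. This fold change is taken as a measure of aggregation propensity.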

Turning to “HMRYNPETTAGRRGLIIKMLDEYGQVNVNELSRYFNVSEVTVRNDLAYLERKNLLIRARGGAIKTE”, the “soluble fraction (log2)” value was determined as 0.0289. Regarding “HMRYWVKSETDFLIENRGKYSYQEFADMLGRSYAVVYDKMHQLKIDYTKEELEIFDEKHKAQMREKQQR”, the “soluble fraction (log2)” value was -0.665. With “HMSAAPVGPWALSEFLDAVEKDSVERVTFDDAGKALVAVDADGGRHRVEILPSEGPEILAALRKHSVQFA”, the “soluble fraction (log2)” value is -0.346. Take “HMSADEVSQQLTSEQTKSKSYQALLQAYAAYQQKSFDDAALELQNVQQDVLSDSQKTIYNTISQAVNS”: the “soluble fraction (log2)” value is -0.0227.

As to “HMSADISIGYNIPKGSVTVSAGGRTLQEGIDYDINYDLGTIKITNQAILNAGLPVQVNFENNAS”, the “soluble fraction (log2)” value is -0.212. Under “HMSADLVYLRKRLQDAIAQLPENMRTAYTLFQIANRSIREISELTGASESLVKVRIHRAKGKLQKQLEDLK” stands -0.5; under “HMSAEDYLERIHELIESKGTAHVADIAQSLGVGKPSVTSMVQKLADEGYLNYEKYRSLTLTDSGRSIA”, 0.0599; under “HMSAEDYMEMIYRLSQENGFTRVNDLASALNVQPPSVTRMIQKLAELNLIKYEKYGVIMLQPYGIEVGRSL”, -1.47. On to “HMSAEGPALADWVVRDAHSIGAKITNSVAQLLIDRVGHNQQLLHNELQKLALVQTDISAELVKTMSHY”, for which the “soluble fraction (log2)” value was -0.0595. Take “HMSAETRSWTDAQGNQTQAVLRGFDGGDVLLQNAAGKTLRVPVKNLSEDDQRYVVLNISTLID”: the “soluble fraction (log2)” value is -0.594. For the sequence “HMSAITLDQARAIALDHAGISEGDATFVKEQTGTSSYEIEFYSGSNEYDYEIDKATGAILNVDR”, the “soluble fraction (log2)” value amounted to 0.22. As for “HMSALAEELIKKNQAMILTIKPRDTIWGIANRFQSPPSEKFINQIIELNQVDPYRLRIGQDLLIPLN”, the “soluble fraction (log2)” value came to 0.00792. Under “HMSALTDQQQRVLELVASGLVYKEVAAALSISEPTVKYHMGNILTRLHVKNRAQAIAAARQQGLL” stands -0.26. Take “HMSAMKYTSEVFQRLSRGQFISSNSIDAETRAIYSDIEENQQEYEDYFSKIDFLLSSGDGFYYFSRK”: the “soluble fraction (log2)” value was -1.22. Under “HMSAMSPTEVGERLRLAREAVRMTQKQAADAISVARTTLVAIEQGQRRVRIDELQQLAKTYGVSVNAILR” stands 0.27. Turning to “HMSAPAKKPKIKVDLSKVHAGTIVRHKGYGLGQVKGIDGAIIVVTFDGVDKKFQFPGGFENGFLFLTED”, the “soluble fraction (log2)” value was -1.21. As to “HMSAPLKELGNDPESGKPIVVKDGRFGAYVTDGETNATLRKTDAVESLTPERAAELLAEKRAKG”, the “soluble fraction (log2)” value came out at 0.199. As to “HMSAPTAFSERELELLAGMRRGASNKAMAEQLFISVNTVKYHRANLMRKLGARDRNEALEVAARLG”, the “soluble fraction (log2)” value is -0.179.

Take “HMSAQDLIVKTDATQVEARVLEISPEQIRYKRFSNPDGPTYVLPVDAVDYIRYANGETDSFR”: the “soluble fraction (log2)” value is -0.446. Regarding “HMSASAIYVRPKDVKEPEEVADYLSGVLELDREKLYKKITDKSQWIALIERKVDNDIAFDIRNKKFKGIEI”, the “soluble fraction (log2)” value is -0.784. As for “HMSASIAEGTVIMLENTTNIRSGMSEDSSKVGTAYAGEKVTVVMSYAEGWTKVKWNGETGYIKTALLQL”, the “soluble fraction (log2)” value is -0.405. Under “HMSASNSIDFANRMIYNKNQVAVFNFGKHMGRPVLEVLKSDPSYYDWMMKGDFPMDTKRKLTEIKLQGF” stands -0.173; under “HMSATPQRMTIIDALDSSGKNLSAYELLDLLNDKGQLFNISTIYRVLDFWIEMGIVHKINSSNTYL”, 0.132. On to “HMSATQDAAIAVRIRDILSELDGYEDVTVTVTSGIVTMRGTTLDSEKIARLNDLTGRVEGVVAIENSVTET”, for which the “soluble fraction (log2)” value was -2.31.

Turning to “HMSAVIGTATVTTSSGSLNLRESASLYSRVIRTIPRGATVDVLSRDTSWSRVRYAGSEGYVLNQYLTFQT”, the “soluble fraction (log2)” value is at least 0.43. On to “HMSDAGMNQIGDMFRAPDLMAKLAMNPATREYVSQPDFLAMMEEVKRNPSALNNHLRDPRMMNVLSVAM”, for which the “soluble fraction (log2)” value is -0.48. Turning to “HMSDAPLLSIRSLAVAFDGTRVVDGVSFDVARGEVVALVGESGSGKTVTGLSLLDLVPPPGRRVGGEV”, the “soluble fraction (log2)” value is -0.025. Consider “HMSDDAVVRMRVPEDALGLSLRETDFRQRFGVYVLAIETRDGKLLAPPDPQRPLGKDDVLVVIQKR”, for which the “soluble fraction (log2)” value is -0.279. For “HMSDDLLTGLDAYSRGDWTTATASFERVLTTADPNNRTEALYWLVMSETSAQNYQRALNYANTFL” the value was -0.887.

Take “HMSDDSTIVELLASSLRRDIAFGTLLPDQKLKLNELRTRYGGSIHSMRETLRILSAEGLVEATAQRGFRVT”: the “soluble fraction (log2)” value is -0.395. For the sequence “HMSDEIQLQFIQISIFKDHPWADMQIKDMNIIPDLLIVMILRDGERIIPNGNTRIMPGDMVIITAMSANT”, the “soluble fraction (log2)” value was -1.7. For “HMSDESALIAAIEKAIAAQPETAEKVRNGHLPAAGALIGSVMKETKGQADAARVRELLLGLLGQ” the value was 0.0231; for “HMSDESRAEIVSSAKRLFQQYGYKKTTVSDIAKAMGKVKSAIYYYFPDKESLLRAVIDEEVG”, 0.132. “HMSDFEASDPALLREGMRVQHLNFGKGTVITIEGAGANKKASVAFDGVGTKQLMLRFARLKIIYE”: the “soluble fraction (log2)” value was -0.622.

Take “HMSDFKDIILKLRNEQGFTQEKLADVLGTSKSTVGMWEMGVRFPSKELYEAIADYFNVDIDYLYGRTDIR”: the “soluble fraction (log2)” value was -1.35. For the sequence “HMSDGYETLVNMAKPFLNNSKQITENDITDAVNTVSVMLKKRYDMTDEDIRKAVSELLHFYA”, the “soluble fraction (log2)” value was -0.791. Turning to “HMSDIDHIAGRRIRQARLNAGMTLETLASQAGISKALLSKIENSKVSSPLATFSKISKVLGVPLSDLLKE”, the “soluble fraction (log2)” value came to 0.204. For the sequence “HMSDILALMPGTIKQILVAPGDSVKRGQTVIIMESMKMELTIAAHRDGVVKRIPVEQGGQVEKGMRLLELE”, the “soluble fraction (log2)” value was -0.263.

“HMSDIPEGYMSRVQLGDEWGIHLATFDKAVIAVKEKLGTVVFIDKSNNTTAGYSPEQQTIIYDWLAEN”: the “soluble fraction (log2)” value was 0.29. “HMSDKNVYGKYKNVFLSDEEFSELKQFYPNDWSDRIETLSEGIELKGYKYKNYLLAIKKWAEYEGQKAD”: the “soluble fraction (log2)” value was -0.77.

In the case of “HMSDKPIFIDTAGIAALSAIGFSKYQATIIFNYIKKGGAIYTVKDLAKIYSIDQKTIDLTQSKIIFS”, the “soluble fraction (log2)” value was determined as 0.22. For “HMSDKPRYYINGNTLFISDKSVKKVLFSDLSGRSILHTTETAINIATFRGAHILTVIYTDGSTKSEVIF”, the “soluble fraction (log2)” value was found to be 0.235.

“HMSDLLYAHPTEKGFQLVNVTQKVVMVILKTAAPNVYTVKGKNAIVFKEGNSWFYSENHNKKLLNIK”: the “soluble fraction (log2)” value is -0.1. As for “HMSDLQTGDINQDGTVDEKDLSLLHSYNLELIKTISNAADLNEDGVINGLDEAYLKRLFLQNSDP”, the “soluble fraction (log2)” value was -0.142. Regarding “HMSDLTEVIVKFSGDIQPIRQDLDAQVEILLKGYAIITLSPNKIGRLYSYPQIESIEIPKNLYI”, the “soluble fraction (log2)” value is -0.833.

For the sequence “HMSDPASLQRRLMSDPELTARILDSPFTRSLLDDPNLLRQMVNANPQLRRAMDANPQLRHAL”, the “soluble fraction (log2)” value is -0.261. Consider “HMSDPEAFIRQTVAAAEPEGIALSVLGKRVRGKFRTFKLRDLGYAQFRPYLGDLDGIKVEQRDGQSYARLD”, for which the “soluble fraction (log2)” value worked out at 0.045. Take “HMSDPSRKADFIAALSSLGGSAGNGKLREQLGWDEPTYDAVKQTLLDEGAITNGRGRGGSVALAG”: the “soluble fraction (log2)” value was 0.146.

As to “HMSDPTDRLVLEAALKALGEEERQVVLLHAASGLKHREIARDLGLPLSTVLSRYSRALKKLQRYLTEEGVH”, the “soluble fraction (log2)” value is -0.461. For “HMSDPVDDLLLRISQQAGVARGQLVAELNMLVQDRFGGNLRHEAAAVLMAKRYGIEFRDLLPALREHLVKN” the value was -0.469.
